Measured values published in IntAct's records for PubMed 21037004.

B1: Protein-export protein SecB (Escherichia coli (strain K12)), P0AG86 (parent)
chain: MSEQNNTEMTFQIQRIYTKDISFEAPNAPHVFQKDWQPEVKLDLDTASSQLADDVYEVVLRVTVTASLGEETAFLCEVQQGGIFSIAGIEGTQMAHCLGAYCPNILFPYARECITSMVSRGTFPQLNLAPVNFDALFMNYLQQQAGEGTEEHQDA

Variants of: B1
Conditions: with seca_ecoli secA
With Q14C the “effect of a mutation on the interaction” value was “increasing interaction strength”.
E24C was tested, and the “effect of a mutation on the interaction” value was “increasing interaction strength”.
For Q33C, the “effect of a mutation on the interaction” value was “increasing interaction strength”.
D35C was tested, and the “effect of a mutation on the interaction” value was “increasing interaction strength”.
With D43C the “effect of a mutation on the interaction” value was “increasing interaction strength”.
For D45C, the “effect of a mutation on the interaction” value was “increasing interaction strength”.
With T46C the “effect of a mutation on the interaction” value was “increasing interaction strength”.
In the case of Q50C, the “effect of a mutation on the interaction” value is reported as “increasing interaction strength”.
For T65C, the “effect of a mutation on the interaction” value was “increasing interaction strength”.
S85C was tested, and the “effect of a mutation on the interaction” value was “increasing interaction strength”.
A87C was tested, and the “effect of a mutation on the interaction” value was “increasing interaction strength”.
In the case of T92C, the “effect of a mutation on the interaction” value is reported as “increasing interaction strength”.
For L126C, the “effect of a mutation on the interaction” value was “increasing interaction strength”.
For L136C, the “effect of a mutation on the interaction” value was “increasing interaction strength”.
With L141C the “effect of a mutation on the interaction” value was “increasing interaction strength”.
Q143C was tested, and the “effect of a mutation on the interaction” value was “increasing interaction strength”.
For G146E, the “effect of a mutation on the interaction” value was “increasing interaction strength”.
With E147C the “effect of a mutation on the interaction” value was “increasing interaction strength”.
For T149C, the “effect of a mutation on the interaction” value was “increasing interaction strength”.
For E150C, the “effect of a mutation on the interaction” value was “increasing interaction strength”.
For A155C, the “effect of a mutation on the interaction” value was “increasing interaction strength”.
